{"source": "the supplement of paper PMC9112550", "about": "“Optimization of the antimicrobial peptide Bac7 by deep mutational scanning” (BMC Biology, 2022);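 also: peptides expressed intracellularly from a pBAD plasmid library in pooled LB shake-flask culture, induced with 0.3% L-arabinose, DNA abundance read by NGS, three biological replicates, DESeq2 with apeglm shrinkage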"}
{"system": "Escherichia coli TOP10", "test": "shrunken log2 fold change of peptide-encoding DNA abundance (4.5 h post-induction vs induction); higher = less antimicrobial activity (less host growth inhibition)", "settings": "time post-induction: 4.5 h; library: site-saturation at positions 5, 18, 19, 20"}
{"sequence": "RRIRFRPPRLPRPRPRPNEHPRP", "shrunken log2 fold change": -0.525}
{"sequence": "RRIRYRPPRLPRPRPRPGQFPRP", "shrunken log2 fold change": -0.0455}
{"sequence": "RRIRTRPPRLPRPRPRPPWRPRP", "shrunken log2 fold change": 0.747}
{"sequence": "RRIRTRPPRLPRPRPRPMAFPRP", "shrunken log2 fold change": -0.0075}
{"sequence": "RRIRYRPPRLPRPRPRPWCSPRP", "shrunken log2 fold change": -0.504}
{"sequence": "RRIRIRPPRLPRPRPRPCWHPRP", "shrunken log2 fold change": -0.428}
{"sequence": "RRIRYRPPRLPRPRPRPNYQPRP", "shrunken log2 fold change": -0.79}
{"sequence": "RRIRFRPPRLPRPRPRPTYHPRP", "shrunken log2 fold change": -0.428}
{"sequence": "RRIRDRPPRLPRPRPRPTREPRP", "shrunken log2 fold change": 1.46}
{"sequence": "RRIRLRPPRLPRPRPRPCLDPRP", "shrunken log2 fold change": -0.0475}
{"sequence": "RRIRARPPRLPRPRPRPKVCPRP", "shrunken log2 fold change": -0.132}
{"sequence": "RRIRFRPPRLPRPRPRPYMVPRP", "shrunken log2 fold change": -0.953}
{"sequence": "RRIRIRPPRLPRPRPRPTQPPRP", "shrunken log2 fold change": -0.0427}
{"sequence": "RRIRNRPPRLPRPRPRPATFPRP", "shrunken log2 fold change": -0.441}
{"sequence": "RRIRPRPPRLPRPRPRPNERPRP", "shrunken log2 fold change": 0.181}
{"sequence": "RRIRWRPPRLPRPRPRPYNNPRP", "shrunken log2 fold change": -0.991}
{"sequence": "RRIRTRPPRLPRPRPRPNRGPRP", "shrunken log2 fold change": -0.0939}
{"sequence": "RRIRTRPPRLPRPRPRPIKDPRP", "shrunken log2 fold change": -0.104}
{"sequence": "RRIRCRPPRLPRPRPRPKNDPRP", "shrunken log2 fold change": -0.048}
{"sequence": "RRIRMRPPRLPRPRPRPFMHPRP", "shrunken log2 fold change": -0.647}
{"sequence": "RRIRPRPPRLPRPRPRPTEPPRP", "shrunken log2 fold change": 0.179}
{"sequence": "RRIRQRPPRLPRPRPRPNCGPRP", "shrunken log2 fold change": 0.0184}
{"sequence": "RRIRTRPPRLPRPRPRPWFMPRP", "shrunken log2 fold change": -0.364}
{"sequence": "RRIRIRPPRLPRPRPRPEEVPRP", "shrunken log2 fold change": -0.00172}
{"sequence": "RRIRTRPPRLPRPRPRPWATPRP", "shrunken log2 fold change": -0.00422}
{"sequence": "RRIRARPPRLPRPRPRPYACPRP", "shrunken log2 fold change": -0.217}
{"sequence": "RRIRHRPPRLPRPRPRPSDFPRP", "shrunken log2 fold change": 0.00333}
{"sequence": "RRIRERPPRLPRPRPRPPWNPRP", "shrunken log2 fold change": -0.246}
{"sequence": "RRIRMRPPRLPRPRPRPILFPRP", "shrunken log2 fold change": -0.385}
{"sequence": "RRIRHRPPRLPRPRPRPPAIPRP", "shrunken log2 fold change": 0.0959}
{"sequence": "RRIRRRPPRLPRPRPRPDVPPRP", "shrunken log2 fold change": 0.0826}
{"sequence": "RRIRYRPPRLPRPRPRPMPHPRP", "shrunken log2 fold change": -0.202}
{"sequence": "RRIRARPPRLPRPRPRPDKPPRP", "shrunken log2 fold change": 0.865}
{"sequence": "RRIRKRPPRLPRPRPRPYWMPRP", "shrunken log2 fold change": -0.19}
{"sequence": "RRIRGRPPRLPRPRPRPIFWPRP", "shrunken log2 fold change": 0.531}
{"sequence": "RRIRRRPPRLPRPRPRPAITPRP", "shrunken log2 fold change": -0.0525}
{"sequence": "RRIRQRPPRLPRPRPRPCRHPRP", "shrunken log2 fold change": -0.000946}
{"sequence": "RRIRRRPPRLPRPRPRPDMLPRP", "shrunken log2 fold change": -0.0772}
{"sequence": "RRIRTRPPRLPRPRPRPIGKPRP", "shrunken log2 fold change": 0.0128}
{"sequence": "RRIRERPPRLPRPRPRPGYGPRP", "shrunken log2 fold change": -0.165}
{"sequence": "RRIRRRPPRLPRPRPRPSAAPRP", "shrunken log2 fold change": 1.13}
{"sequence": "RRIRWRPPRLPRPRPRPPDNPRP", "shrunken log2 fold change": 0.318}
{"sequence": "RRIRSRPPRLPRPRPRPGEIPRP", "shrunken log2 fold change": 0.223}
{"sequence": "RRIRLRPPRLPRPRPRPDGAPRP", "shrunken log2 fold change": 0.0651}
{"sequence": "RRIRTRPPRLPRPRPRPSGTPRP", "shrunken log2 fold change": -0.0272}
{"sequence": "RRIRLRPPRLPRPRPRPQHYPRP", "shrunken log2 fold change": -0.761}
{"sequence": "RRIRQRPPRLPRPRPRPCDKPRP", "shrunken log2 fold change": 0.244}
{"sequence": "RRIRFRPPRLPRPRPRPCFWPRP", "shrunken log2 fold change": 0.0499}
{"sequence": "RRIRYRPPRLPRPRPRPWRIPRP", "shrunken log2 fold change": -0.297}
{"sequence": "RRIRMRPPRLPRPRPRPAHMPRP", "shrunken log2 fold change": 0.281}
{"sequence": "RRIRGRPPRLPRPRPRPLDNPRP", "shrunken log2 fold change": 0.244}
{"sequence": "RRIRTRPPRLPRPRPRPQIIPRP", "shrunken log2 fold change": -0.358}
{"sequence": "RRIRNRPPRLPRPRPRPHVRPRP", "shrunken log2 fold change": -0.12}
{"sequence": "RRIRDRPPRLPRPRPRPAKWPRP", "shrunken log2 fold change": 0.486}
{"sequence": "RRIRNRPPRLPRPRPRPLVNPRP", "shrunken log2 fold change": -0.289}
{"sequence": "RRIRQRPPRLPRPRPRPVSLPRP", "shrunken log2 fold change": -0.131}
{"sequence": "RRIRMRPPRLPRPRPRPKRKPRP", "shrunken log2 fold change": 2.32}
{"sequence": "RRIRCRPPRLPRPRPRPHEDPRP", "shrunken log2 fold change": -0.157}
{"sequence": "RRIRLRPPRLPRPRPRPWGPPRP", "shrunken log2 fold change": -0.24}
{"sequence": "RRIRRRPPRLPRPRPRPENCPRP", "shrunken log2 fold change": 0.0654}
{"sequence": "RRIRSRPPRLPRPRPRPWDVPRP", "shrunken log2 fold change": 0.166}
{"sequence": "RRIRCRPPRLPRPRPRPVQNPRP", "shrunken log2 fold change": -0.22}
{"sequence": "RRIRERPPRLPRPRPRPDQCPRP", "shrunken log2 fold change": -0.308}
{"sequence": "RRIRIRPPRLPRPRPRPSKLPRP", "shrunken log2 fold change": -1.04}
{"sequence": "RRIRTRPPRLPRPRPRPGEMPRP", "shrunken log2 fold change": 0.136}
{"sequence": "RRIRARPPRLPRPRPRPMGMPRP", "shrunken log2 fold change": 0.211}
{"sequence": "RRIRCRPPRLPRPRPRPFWTPRP", "shrunken log2 fold change": -0.317}
{"sequence": "RRIRHRPPRLPRPRPRPEGVPRP", "shrunken log2 fold change": 0.0659}
{"sequence": "RRIRYRPPRLPRPRPRPMRNPRP", "shrunken log2 fold change": 0.174}
{"sequence": "RRIRLRPPRLPRPRPRPSSPPRP", "shrunken log2 fold change": -0.115}
{"sequence": "RRIRCRPPRLPRPRPRPCAPPRP", "shrunken log2 fold change": -0.00137}
{"sequence": "RRIRWRPPRLPRPRPRPEWWPRP", "shrunken log2 fold change": -0.0316}
{"sequence": "RRIRPRPPRLPRPRPRPWNGPRP", "shrunken log2 fold change": 0.0165}
{"sequence": "RRIRYRPPRLPRPRPRPEADPRP", "shrunken log2 fold change": 0.123}
{"sequence": "RRIRHRPPRLPRPRPRPRRHPRP", "shrunken log2 fold change": 0.153}
{"sequence": "RRIRCRPPRLPRPRPRPYVDPRP", "shrunken log2 fold change": -0.232}
{"sequence": "RRIRSRPPRLPRPRPRPIASPRP", "shrunken log2 fold change": 0.0102}
{"sequence": "RRIRHRPPRLPRPRPRPSFEPRP", "shrunken log2 fold change": -0.358}
{"sequence": "RRIRMRPPRLPRPRPRPVIHPRP", "shrunken log2 fold change": 0.0153}
{"sequence": "RRIRFRPPRLPRPRPRPKGAPRP", "shrunken log2 fold change": -0.0295}
{"sequence": "RRIRKRPPRLPRPRPRPERFPRP", "shrunken log2 fold change": -0.0391}
{"sequence": "RRIRCRPPRLPRPRPRPSGRPRP", "shrunken log2 fold change": 0.235}
{"sequence": "RRIRERPPRLPRPRPRPKDQPRP", "shrunken log2 fold change": 0.188}
{"sequence": "RRIRERPPRLPRPRPRPVYCPRP", "shrunken log2 fold change": -0.477}
{"sequence": "RRIRERPPRLPRPRPRPTYGPRP", "shrunken log2 fold change": 0.158}
{"sequence": "RRIRYRPPRLPRPRPRPRSLPRP", "shrunken log2 fold change": -0.0256}
{"sequence": "RRIRDRPPRLPRPRPRPTWWPRP", "shrunken log2 fold change": 0.433}
{"sequence": "RRIRGRPPRLPRPRPRPHVDPRP", "shrunken log2 fold change": 0.0583}
{"sequence": "RRIRLRPPRLPRPRPRPQFCPRP", "shrunken log2 fold change": -0.137}
{"sequence": "RRIRFRPPRLPRPRPRPWREPRP", "shrunken log2 fold change": -0.149}
{"sequence": "RRIRFRPPRLPRPRPRPKWPPRP", "shrunken log2 fold change": 0.27}
{"sequence": "RRIRSRPPRLPRPRPRPPNHPRP", "shrunken log2 fold change": -0.16}
{"sequence": "RRIRHRPPRLPRPRPRPSEKPRP", "shrunken log2 fold change": -0.144}
{"sequence": "RRIRGRPPRLPRPRPRPIAPPRP", "shrunken log2 fold change": 1.29}
{"sequence": "RRIRVRPPRLPRPRPRPGQDPRP", "shrunken log2 fold change": -0.41}
{"sequence": "RRIRDRPPRLPRPRPRPPWIPRP", "shrunken log2 fold change": -0.29}
{"sequence": "RRIRSRPPRLPRPRPRPPDKPRP", "shrunken log2 fold change": 0.0307}
{"sequence": "RRIRQRPPRLPRPRPRPYPNPRP", "shrunken log2 fold change": -0.0164}
{"sequence": "RRIRPRPPRLPRPRPRPYSEPRP", "shrunken log2 fold change": 0.0371}
{"sequence": "RRIRHRPPRLPRPRPRPTVCPRP", "shrunken log2 fold change": 0.196}
{"sequence": "RRIRSRPPRLPRPRPRPDDCPRP", "shrunken log2 fold change": -0.0201}
{"sequence": "RRIRYRPPRLPRPRPRPRPPPRP", "shrunken log2 fold change": 1.01}
{"sequence": "RRIRCRPPRLPRPRPRPYPWPRP", "shrunken log2 fold change": -1.29}
{"sequence": "RRIRSRPPRLPRPRPRPSIYPRP", "shrunken log2 fold change": -0.00286}
{"sequence": "RRIRGRPPRLPRPRPRPAHPPRP", "shrunken log2 fold change": 0.754}
{"sequence": "RRIRHRPPRLPRPRPRPARWPRP", "shrunken log2 fold change": 0.386}
{"sequence": "RRIRMRPPRLPRPRPRPPPPPRP", "shrunken log2 fold change": 2.05}
{"sequence": "RRIRERPPRLPRPRPRPAHYPRP", "shrunken log2 fold change": -0.148}
{"sequence": "RRIRSRPPRLPRPRPRPPNEPRP", "shrunken log2 fold change": 0.0505}
{"sequence": "RRIRMRPPRLPRPRPRPDECPRP", "shrunken log2 fold change": 2.8}
{"sequence": "RRIRRRPPRLPRPRPRPLREPRP", "shrunken log2 fold change": 1.14}
{"sequence": "RRIRKRPPRLPRPRPRPFIYPRP", "shrunken log2 fold change": -0.144}
{"sequence": "RRIRSRPPRLPRPRPRPCRMPRP", "shrunken log2 fold change": -0.102}
{"sequence": "RRIRWRPPRLPRPRPRPHQMPRP", "shrunken log2 fold change": -0.34}
{"sequence": "RRIRLRPPRLPRPRPRPTDMPRP", "shrunken log2 fold change": -0.633}
{"sequence": "RRIRIRPPRLPRPRPRPAHGPRP", "shrunken log2 fold change": 0.188}
{"sequence": "RRIRIRPPRLPRPRPRPAECPRP", "shrunken log2 fold change": -0.311}
{"sequence": "RRIRKRPPRLPRPRPRPLPFPRP", "shrunken log2 fold change": -0.11}
{"sequence": "RRIRQRPPRLPRPRPRPVFIPRP", "shrunken log2 fold change": -0.288}
{"sequence": "RRIRPRPPRLPRPRPRPDVNPRP", "shrunken log2 fold change": -0.233}
{"sequence": "RRIRLRPPRLPRPRPRPREDPRP", "shrunken log2 fold change": 0.327}
{"sequence": "RRIRPRPPRLPRPRPRPWPVPRP", "shrunken log2 fold change": 0.317}
{"sequence": "RRIRVRPPRLPRPRPRPAWCPRP", "shrunken log2 fold change": 0.211}
{"sequence": "RRIRRRPPRLPRPRPRPLCGPRP", "shrunken log2 fold change": 0.0348}
{"sequence": "RRIRRRPPRLPRPRPRPAWFPRP", "shrunken log2 fold change": 0.22}
